According to patent US20240376207A1 (JIANGSU HENGRUI PHARMACEUTICALS, published 2024):

T1: human IgG1 Fc-tagged mouse PVRIG (m-PVRIG-hIgG1 Fc) (mouse, UniProt A0A1B0GS01 35-165)
T1 construct: bought from Acrobiosystems; also called Mouse PVRIG-Fc; mouse PVRIG recombinant protein; not shown: human IgG1 Fc tag of the Acrobiosystems product, and any linker to it
T1 sequence: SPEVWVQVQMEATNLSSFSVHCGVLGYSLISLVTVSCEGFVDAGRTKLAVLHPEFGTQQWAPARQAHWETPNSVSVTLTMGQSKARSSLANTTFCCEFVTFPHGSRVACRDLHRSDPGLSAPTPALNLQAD

T2: his-tagged human PVRIG (h-PVRIG-his) recombinant protein (human, UniProt Q6DKI7 41-171, limits assumed)
T2 construct: bought from Acrobiosystems; also called Human PVRIG-his; human PVRIG recombinant protein; not shown: his tag
T2 sequence (looked up): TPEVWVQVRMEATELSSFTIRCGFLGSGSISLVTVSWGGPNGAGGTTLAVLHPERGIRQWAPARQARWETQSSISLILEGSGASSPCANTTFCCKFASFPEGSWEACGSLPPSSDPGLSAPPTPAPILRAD

T3: human TIGIT expressed on cells (human, UniProt Q495A1 22-244)
T3 construct: whole, on cells; also called cells overexpressing human TIGIT
T3 sequence (looked up): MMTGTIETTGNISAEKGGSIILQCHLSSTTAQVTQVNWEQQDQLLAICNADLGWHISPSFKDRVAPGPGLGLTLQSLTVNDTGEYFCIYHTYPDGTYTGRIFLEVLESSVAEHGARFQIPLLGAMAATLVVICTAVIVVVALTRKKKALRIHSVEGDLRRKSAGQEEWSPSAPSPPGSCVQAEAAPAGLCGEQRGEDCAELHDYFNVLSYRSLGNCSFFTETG

T4: his-tagged cynomolgus monkey PVRIG (cyno-PVRIG-his) recombinant protein (cynomolgus monkey)
T4 construct: expressed in HEK293, purified by Ni-NTA; also called Monkey PVRIG-his; cynomolgus monkey PVRIG recombinant protein
T4 chain: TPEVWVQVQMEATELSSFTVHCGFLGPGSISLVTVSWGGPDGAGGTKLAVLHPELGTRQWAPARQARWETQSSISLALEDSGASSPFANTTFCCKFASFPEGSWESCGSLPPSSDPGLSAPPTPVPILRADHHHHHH

B1: positive antibody Tab5 (antibody, human IgG4 S228P, kappa, F234A L235A, V domains shown)
VH: EVQLVESGGGVVKPGGSLRLSCAASGFTFGTSSMNWVRQAPGKGLEWVAVISFDGTEIHYADSVKGRFTISRDNSKSTVFLQMNSLRPDDTALYYCAKGSGNIYFYSGMDVWGQGTTVTVSS
VL: DIQMTQSPSTLSASVGDRVTITCRAGQSISGWLAWFQQKPGKAPNLLIYETSTLESGVPSRFSGSGSGTEYTLTISSLQPDDFATYYCQQYYSYPLTFGQGTKVEIKR
notes: Variable regions of CPA.7.021 (WO2016134333A1) on human IgG4 (S228P/F234A/L235A/K447A) and human kappa constant regions
B2: anti-PVRIG antibody 38 (antibody, human IgG4 S228P, F234A L235A, V domains shown)
VH: QVQLVESGGGSVQAGGSLRLSCAASPSTYGPSDMAWFRQAPGKQREGVATISAAGRLTYYTDSVRGRFTISRDNAKNTMYLQMNSLKPEDTAMYYCAADFAGGSSLFADYKYWGQGTQVTVSS
notes: no light chain
B3: humanized anti-PVRIG/TIGIT bispecific antibody 1708-20H5 (bispecific antibody, human IgG4 S228P, kappa)
heavy: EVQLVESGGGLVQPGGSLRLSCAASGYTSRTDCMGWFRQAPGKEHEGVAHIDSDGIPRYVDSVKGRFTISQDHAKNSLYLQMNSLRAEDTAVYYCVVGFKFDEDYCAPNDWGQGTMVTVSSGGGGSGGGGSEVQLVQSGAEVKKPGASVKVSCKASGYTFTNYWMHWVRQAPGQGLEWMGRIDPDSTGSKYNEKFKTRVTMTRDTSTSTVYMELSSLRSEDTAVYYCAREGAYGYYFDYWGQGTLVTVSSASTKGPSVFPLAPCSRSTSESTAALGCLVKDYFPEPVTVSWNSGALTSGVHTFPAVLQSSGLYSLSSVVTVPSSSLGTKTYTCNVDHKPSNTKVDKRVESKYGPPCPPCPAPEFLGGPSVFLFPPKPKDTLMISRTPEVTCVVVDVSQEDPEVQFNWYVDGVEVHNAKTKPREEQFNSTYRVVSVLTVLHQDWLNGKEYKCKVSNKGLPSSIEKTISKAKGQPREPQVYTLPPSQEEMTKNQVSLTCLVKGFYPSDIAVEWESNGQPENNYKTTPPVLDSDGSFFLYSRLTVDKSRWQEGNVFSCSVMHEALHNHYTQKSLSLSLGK
light: DIQMTQSPSSLSASVGDRVTITCRASENIYSYLAWYQQKPGKSPKLLIYNARTLAEGVPSRFSGSGSGTDFTLTISSLQPEDFATYYCQYHSGSPLPFGGGTKVEIKRTVAAPSVFIFPPSDEQLKSGTASVVCLLNNFYPREAKVQWKVDNALQSGNSQESVTEQDSKDSTYSLSSTLTLSKADYEKHKVYACEVTHQGLSSPVTKSFNRGEC
B4: humanized anti-PVRIG/TIGIT bispecific antibody 1708-30H2 (bispecific antibody, human IgG4 S228P, kappa)
heavy: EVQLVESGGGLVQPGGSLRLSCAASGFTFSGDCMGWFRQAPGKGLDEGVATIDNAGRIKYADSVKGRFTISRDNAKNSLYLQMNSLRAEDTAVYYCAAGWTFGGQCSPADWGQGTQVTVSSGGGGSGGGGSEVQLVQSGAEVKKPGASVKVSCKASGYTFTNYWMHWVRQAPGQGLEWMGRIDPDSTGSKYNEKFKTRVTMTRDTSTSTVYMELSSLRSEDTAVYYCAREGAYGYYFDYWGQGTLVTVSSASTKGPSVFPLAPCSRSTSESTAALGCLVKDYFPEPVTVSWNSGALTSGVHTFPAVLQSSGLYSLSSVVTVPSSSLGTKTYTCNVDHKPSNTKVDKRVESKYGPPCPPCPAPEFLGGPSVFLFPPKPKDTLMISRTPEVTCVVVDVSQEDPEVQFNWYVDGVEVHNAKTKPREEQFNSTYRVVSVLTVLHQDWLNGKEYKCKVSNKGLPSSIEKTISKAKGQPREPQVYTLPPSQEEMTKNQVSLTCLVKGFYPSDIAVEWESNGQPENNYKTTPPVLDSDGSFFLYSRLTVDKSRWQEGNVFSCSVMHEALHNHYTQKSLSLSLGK
light: B3 light
B5: anti-PVRIG antibody 151 (antibody, human IgG4 S228P, F234A L235A, V domains shown)
VH: HVQLVESGGGSVQAGGSLRLSCVASASGFTYRPYCMAWFRQAPGKEREAVAGIDIFGGTTYADSVKGRFTASRDNAGFSLFLQMNDLKPEDTAMYYCAAGDSPDGRCPPLGQGLNYWGQGTQVTVSS
notes: no light chain
B6: anti-PVRIG antibody 30 (antibody, human IgG4 S228P, F234A L235A, V domains shown)
VH: HVQLVESGGGSVQAGGSLRLSCEASGYSYSGDCMGWFRRAPGKERDEGVATIDNAGRIKYADSVKGRFTISHGNGKYILYLQMNSLKPEDTDMYYCAAGWTFGGNCSPADWGQGTQVTVSS
notes: no light chain
B7: anti-PVRIG antibody 39 (antibody, human IgG4 S228P, F234A L235A, V domains shown)
VH: QVQLVESGGGSVQAGGSLRLSCAASRYTSRTDCMGWFRQAPGKEREGVAHIDSDGIPRYVESVKGRFTISQDHAKNTLYLQMNSLKPEDSATYYCVVGFKFGDYCAPNDWGQGTQVTVSS
notes: no light chain

Assays:
[1] = biological target: T1, human IgG1 Fc-tagged mouse PVRIG …; assay: ELISA, coated antigen
Method: (§1) ELISA assay was used to detect binding properties of anti-PVRIG antibodies. […] After the antibody was added, the activity of the binding of the antibody to the antigen was detected by adding a secondary antibody (HRP-conjugated anti-primary antibody Fc antibody) and HRP substrate TMIB.
(§2) A human, cynomolgus monkey, or mouse PVRIG protein (at a concentration of 1 μg/mL) was coated on a 96-well microplate at 100 μL per well, and incubated overnight at 4° C. The plate was washed three times with wash buffer at 250 μL per well. For each wash, the plate was shaken for 10 s to ensure adequate cleaning. A blocking solution (PBS+0.05% Tween20+1% BSA) was added at 300 μL/well, and the plate was incubated at room temperature for 1 h. The plate was washed three times with wash buffer at 250 μL per well. For each wash, the plate was shaken for 10 s to ensure adequate cleaning. Dilutions of the test anti-PVRIG antibodies were added at 100 μL/well. The plate was incubated at 37° C. for 1 h. The plate was washed three times with wash buffer at 250 μL per well. The […] anti-human IgG secondary antibody (Sigma, A8667) was added at 100 μL per well. The plate was incubated at 37° C. for 1 h. The plate was washed three times with wash buffer at 250 μL per well. TMB was added at 100 μL/well, and the plate was incubated in the dark for 15 min. 0.16 M sulfuric acid was added at 50 μL/well. The OD values at 450 nm were read by using a Thermo MultiSkanFc microplate reader, and the EC₅₀ values of the binding of the anti-PVRIG antibodies to PVRIG were calculated.

[2] = biological target: T2, his-tagged human PVRIG (h-PVRIG-his) …; assay: ELISA, coated antigen
Method: as §1, §2

[3] = biological target: T3, human TIGIT expressed on cells; assay: FACS, cells overexpressing target
Method: (§3) The expression plasmid carrying human or cynomolgus monkey PVRIG gene sequence was transfected into HEK293 cells, and the over-expressing stable transfection monoclonal cell strain was obtained by antibiotic screening and infinite dilution. Overexpressing cells were seeded into a 96-well plate at 2×10⁵ cells/per well. The cells were centrifuged at 300 g for 5 min, the supernatant was then removed, 100 μL of the test antibody was added, and the mixture was incubated at 4° C. for 1 h. The mixture was centrifuged, the supernatant was removed, the plate was washed 3 times with 200 μL of wash buffer (PBS+2% FBS), and then 100 μL of an anti-human IgG secondary antibody (Invitrogen, A-11013) labeled with Alexa Fluor 488 diluted at 1:500 was added. The mixture was incubated at 4° C. for 1 h. The plate was centrifuged, and the supernatant was removed. The plate was washed 3 times with 200 μL of wash buffer (PBS+2% FBS). The cells were resuspended in 100 μL of PBS and tested on a flow cytometer (BD FACS Calibur or BD FACS Canto_II).
(§4) Similarly to Examples 4, 5 and 6, the binding of humanized anti-PVRIG/TIGIT bispecific antibodies to human and cynomolgus monkey TIGIT and blocking of binding of human TIGIT to ligand were detected, where PVRIG protein was replaced with TIGIT and PVRL2 was replaced with PVR.

[4] = biological target: T5, cynomolgus monkey TIGIT expressed on cells (cynomolgus monkey, UniProt A0A7N9I9V4 89-312); assay: FACS, cells overexpressing target
T5 construct: whole, on cells; also called cells overexpressing cynomolgus monkey TIGIT
Method: as §3, §4

[5] = biological target: T4, his-tagged cynomolgus monkey PVRIG …; assay: ELISA, coated antigen
Method: as §1, §2

T5 sequence (A0A7N9I9V4 entry or part of it): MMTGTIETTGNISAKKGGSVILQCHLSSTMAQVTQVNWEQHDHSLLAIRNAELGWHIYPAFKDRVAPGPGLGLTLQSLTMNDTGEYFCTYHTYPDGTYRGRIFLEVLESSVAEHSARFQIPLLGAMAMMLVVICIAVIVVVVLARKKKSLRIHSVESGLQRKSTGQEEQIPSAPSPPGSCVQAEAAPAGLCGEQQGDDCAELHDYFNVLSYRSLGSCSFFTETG

| Binder | binding result [1] | EC50 [2] | binding result [3] | binding result [4] | EC50 [5] | EC50 [3] | EC50 [4] |
| --- | --- | --- | --- | --- | --- | --- | --- |
| B1 | no binding | 2860 pM | no binding | no binding |  |  |  |
| B2 | no binding | 260 pM |  |  | 400 pM |  |  |
| B3 |  |  |  |  |  | 10 pM | 9 pM |
| B4 |  |  |  |  |  | 10 pM | 9 pM |
| B5 | no binding | 2150 pM |  |  | 2430 pM |  |  |
| B6 | no binding | 260 pM |  |  | 160 pM |  |  |
| B7 | no binding | 270 pM |  |  | 160 pM |  |  |
